According to patent publication US20200353078A1 (AstraZeneca / MedImmune, published 2020):
One block for each binder: values may come before it.

Tests used:
[1] = molecular target: T1, Human IL-1 alpha (R&D Systems) (human, UniProt P01583 113-271); test: HTRF: unlabelled test protein competes with biotinylated human IL33-01 for DyLight650 labelled 33_640237-2B IgG
T1 sequence (looked up): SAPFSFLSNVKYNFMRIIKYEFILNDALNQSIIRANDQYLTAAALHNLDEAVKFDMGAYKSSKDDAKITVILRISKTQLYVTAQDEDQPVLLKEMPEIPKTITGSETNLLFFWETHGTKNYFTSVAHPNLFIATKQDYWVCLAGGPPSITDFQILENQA
In short: (§1)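 HTRF competition: dilutions of unlabelled test protein competed with biotinylated human IL-33-01 (0.12 nM solution, with 0.75 nM streptavidin cryptate) for DyLight650-labelled 33_640087-7B or 33_640237-2B, in DPBS with 0.8 M KF and 0.1% BSA. Incubation was 4 h at RT, then 18 h at 4 °C. The 665/620 nm ratio gave % specific binding; IC50 by four-parameter fit.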

[2] = molecular target: Human IL-1 beta (R&D Systems) (human, UniProt P01584 117-269); test: as above
In short: as §1

Rat IL-33 (GenScript) = molecular target: T2, Rat IL-33 (GenScript) (rat, UniProt Q66H70 109-264, limits assumed); test: as above
T2 sequence (looked up): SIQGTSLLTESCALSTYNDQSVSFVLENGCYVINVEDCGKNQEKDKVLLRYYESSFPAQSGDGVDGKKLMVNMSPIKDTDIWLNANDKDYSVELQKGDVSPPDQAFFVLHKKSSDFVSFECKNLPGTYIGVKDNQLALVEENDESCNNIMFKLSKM
In short: as §1

His10/Avi Human IL33-01 = molecular target: T3, His10/Avi Human IL33-01 (human); test: cell-based or functional assay
T3 chain: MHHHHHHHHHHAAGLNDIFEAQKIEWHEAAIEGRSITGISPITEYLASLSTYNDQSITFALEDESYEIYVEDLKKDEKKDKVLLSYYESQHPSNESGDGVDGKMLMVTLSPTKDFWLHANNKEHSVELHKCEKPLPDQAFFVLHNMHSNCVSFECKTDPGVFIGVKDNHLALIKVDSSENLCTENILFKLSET

Human IL-33 Flag®His [3] = molecular target: T4, Human IL-33 Flag®His (human); test: HTRF, test protein competing with biotinylated IL33-01 for DyLight650 labelled IgG
T4 construct: Mature IL-33 with C-terminal FLAG 10xHis tag, from E. coli; biotinylated via free cysteines where used biotinylated; also called Mature Human IL-33_FH; human IL-33 FH
T4 chain: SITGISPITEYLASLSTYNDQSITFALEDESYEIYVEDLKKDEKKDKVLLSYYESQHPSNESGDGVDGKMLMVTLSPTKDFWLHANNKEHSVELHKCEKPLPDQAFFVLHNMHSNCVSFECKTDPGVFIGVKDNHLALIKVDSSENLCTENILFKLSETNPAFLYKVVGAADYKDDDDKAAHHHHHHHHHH
Description: (§2) Human, cyno and mouse IL-33 FLAG® His (described in Example 1 and Table 21), Human IL-1 alpha and IL-1 beta (R&D Systems) (Table 21) or rat IL-33 (GenScript) were tested for inhibition of human IL-33 binding to DyLight650 labelled 33_640087-7B or DyLight650 labelled 33_640237-2B by adding 5 microlitres of each dilution of sample to a 384 well low volume assay plate (Costar, 3673). […] This was followed by the addition of 2.5 microlitres of a solution containing 0.12 nM biotinylated human IL-33-01 combined with 0.75 nM streptavidin cryptate detection (Cisbio International, 610SAKLB). All dilutions were performed in assay buffer containing 0.8 M potassium fluoride (VWR, 26820.236) and 0.1% bovine serum albumin (BSA, PAA, K05-013) in Dulbeccos PBS (Invitrogen, 14190185). Assay plates were incubated for 4 hours at room temperature followed by 18 hours at 4 degrees Celsius and time resolved fluorescence was read at 620 nm and 665 nm emission wavelengths using an EnVision plate reader (Perkin Elmer). Data were analysed by calculating the 665/620 nm ratio followed by the % Delta F values for each sample. The 665/620 nm ratio was used to correct for sample interference using Equation 1. The % Delta F for each sample was then calculated using Equation 2. The negative control (non-specific binding) was defined by replacing biotinylated human IL-33 combined with streptavidin cryptate detection with streptavidin cryptate detection only. The % Delta F values were subsequently used to calculate % specific binding as described in Equation 3. IC₅₀ values were determined using GraphPad Prism software by curve fitting using a four-parameter logistic equation (Equation 4).

[4] = molecular target: T5, Cynomolgus IL-33 Flag®His (cynomolgus monkey); test: as above
T5 construct: C-terminal FLAG 10xHis tag, E. coli; also called Mature Cynomolugus IL-33; cyno IL-33 FH
T5 chain: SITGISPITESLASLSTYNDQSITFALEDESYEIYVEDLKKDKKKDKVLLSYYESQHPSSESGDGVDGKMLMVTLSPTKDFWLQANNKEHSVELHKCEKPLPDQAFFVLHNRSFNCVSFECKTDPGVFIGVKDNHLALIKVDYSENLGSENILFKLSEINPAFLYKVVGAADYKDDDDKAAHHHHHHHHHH
Description: as §2

Mouse IL-33 Flag®His [5] = molecular target: T6, Mouse IL-33 Flag®His (mouse); test: as above
T6 construct: C-terminal FLAG 10xHis tag, E. coli; also called Mature Mouse IL-33_FH; mouse IL-33 FH
T6 chain: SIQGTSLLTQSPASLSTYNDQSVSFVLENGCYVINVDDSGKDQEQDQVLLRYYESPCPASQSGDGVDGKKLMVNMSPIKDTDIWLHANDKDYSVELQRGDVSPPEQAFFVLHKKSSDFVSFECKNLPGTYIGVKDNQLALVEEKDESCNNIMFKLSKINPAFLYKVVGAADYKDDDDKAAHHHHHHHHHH
Description: as §2

Human IL-33 Flag®His [6] = molecular target: T4, Human IL-33 Flag®His; test: phage ELISA
[7] = molecular target: T5, Cynomolgus IL-33 Flag®His; test: phage ELISA
Mouse IL-33 Flag®His [8] = molecular target: T6, Mouse IL-33 Flag®His; test: phage ELISA
[9] = molecular target: T7, Human ST2-Fc (R&D Systems, or source not stated in the example) (human, UniProt Q01638 19-328); test: Biacore T100, ST2-Fc captured on Protein G', peptide as analyte
T7 construct: extracellular domain; also called sST2.Fc; sST2
T7 sequence (looked up): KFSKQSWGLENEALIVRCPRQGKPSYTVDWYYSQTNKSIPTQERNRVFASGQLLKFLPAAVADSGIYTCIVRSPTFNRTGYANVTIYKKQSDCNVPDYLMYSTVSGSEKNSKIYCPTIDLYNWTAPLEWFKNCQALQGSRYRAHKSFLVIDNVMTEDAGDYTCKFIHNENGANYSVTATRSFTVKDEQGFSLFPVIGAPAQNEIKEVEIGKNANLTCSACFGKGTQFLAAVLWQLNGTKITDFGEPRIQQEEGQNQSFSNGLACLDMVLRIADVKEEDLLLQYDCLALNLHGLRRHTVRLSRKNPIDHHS
Excerpt: The identified peptide together with a truncate ([…]) and scrambled variants of both, were then chemically synthesised and used in confirmatory T100 Biacore (GE Healthcare) binding studies. Protein G′ (Sigma Aldrich, P4689) was covalently coupled to the surface of a CM5 sensor chip (GE Healthcare) using standard amine coupling reagents according to manufacturer's instructions. The protein G′ surface was used to capture H338L293 or ST2-Fc via the Fc domain to provide a surface density of approximately 290 RU per cycle. IL33 peptides prepared in HBS-EP+ buffer, at a range of concentrations were passed over the sensor chip surface. The surface was regenerated using two 10 mM Glycine washes of pH 1.7 and pH 1.5 between each injection of antibody. The resulting sensorgrams were evaluated using Biacore T100 evaluation software 2.0.3 (GE Healthcare) and fitted to a 1:1 Langmuir binding model, to provide relative binding data.

binding result [1]: no binding (tested: about 10^-5.8 M) | binding result [2]: no binding (tested: about 10^-5.8 M) | binding result (Rat IL-33 (GenScript)): no binding (tested: about 10^-5.5 M) | IC50 (nM) vs. His Avi IL-33, Huvec IL-8 assay (His10/Avi Human IL33-01): 0.067 nM | binding result (Human IL-33 Flag®His [3]): binds | binding result [4]: binds | binding result (Mouse IL-33 Flag®His [5]): no binding
B1: 33_640237-2B IgG1 (antibody, V domains shown)
VH: EVQLLESGGGLVQPGGSLRLSCAASGFTFSSYAMSWVRQAPGKGLEWVSGIADDFTSTYYADPVKGRFTISRDNSKNTLYLQMNSLRAEDTAVYYCARDLWMMNYAGGLRYPFGYWGQGTMVTVSS
VL: SYVLTQPPSVSVSPGQTASITCSGERMGDKYAAWYQQKPGQSPVLVIYRDTKRPSGIPERFSGSNSGNTATLTISGTQAMDEADYYCGVLKQDTGVFGGGTKLTVL
notes: IgG1

binding result (Human IL-33 Flag®His [6]): binds | binding result [7]: no binding | binding result (Mouse IL-33 Flag®His [8]): no binding
B2: IL330180 scFv (scFv, V domains shown)
VH: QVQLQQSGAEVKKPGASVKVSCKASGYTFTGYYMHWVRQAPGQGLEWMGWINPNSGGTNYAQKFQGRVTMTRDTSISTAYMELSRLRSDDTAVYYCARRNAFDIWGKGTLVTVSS
VL: QPVLTQPPSVSEAPRQRVTISCSGSSSNIGNNAVNWYQQLPGTAPKLLIYRNNQRPSGVPDRFSGSKSGTSASLAISGLRSEDEADYYCAAWDDSLSGWVFGGGTKVNVL

binding result [9]: no binding
B3: IL-33 tryptic epitope peptide (full length synthetic epitope peptide) (peptide)
peptide: MLMVTLSPTKDFWLHANNKEHSVELHK
notes: Chemically synthesised; also called predicted tryptic IL-33 fragment
